According to the supplement of paper PMC7877785:
± gives the uncertainty stated by the source.

Assay: self-splicing fitness, log relative to wild type (ln ratio); higher = more splicing; Tetrahymena group I intron in knt gene, E. coli kanamycin selection, DiMSum; sequences stand for … in CUCUCU…GGAGGGAAAAGUUAUCAGGCAUGCACCUGGUAGCUAGUCUUUAAACCAAUAGAUUGCAUCGGUUUAAAAGGCAAGACCGUCAAAUUGCGGGAAAGGGGUCAACAGCCGUUCAGUACCAAGUCUCAGGGGAAACUUUGAGAUGGCCUUGCAAAGGGUAUGGUAAUAAGCUGACGGACAUGGUCCUAACCACGCAGCCAAGUCCUAAGUCAACAGAUCUUCUGUUGAUAUGGAUGCAGUUCACAGACUAAAUGUCGGUCGGGGAAGAUGUAUUCUUCUCAUAAGAUAUAGUCGGACCUCUCCUUAAUGGGAGCUAGCGGAUGAAGUGAUGCAACACUGGAGCCGCUGGGAACUAAUUUGUAUGCGAAAGUAUAUUGAUUAGUUUUGGAGUACUCGUGGUCG
Method in brief: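 Library with all eight P1ex-region intron nucleotides randomised, intron inside the knt kanamycin-resistance gene on pET-22b(+), in E. coli BL21(DE3). Cells grew overnight at 37°C or 30°C on LB agar with or without 25 μg/mL kanamycin (plus 100 μg/mL carbenicillin, 50 μM IPTG, 0.2% rhamnose), in six replicate transformations. Pooled colonies were amplicon-sequenced on Illumina HiSeq 2500. DiMSum fitness is the error-weighted combination of wild-type-normalised replicate fold changes, kanamycin versus none.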

| Sequence | self-splicing fitness (ln) (30 °C) | self-splicing fitness (ln) (37 °C) |
| --- | --- | --- |
| UGCUAGCAAUAUUACGUUAU | -2.22 ± 0.16 | -2.33 ± 0.23 |
| GUGUAGCAAUAUUACGUGUG | -3.21 ± 0.18 | -1.69 ± 0.15 |
| UCCGAGCAAUAUUACGGAGU | -3.73 ± 0.21 | -2.74 ± 0.22 |
| GGGGAGCAAUAUUACGUCAA | -2.48 ± 0.3 | -3.16 ± 0.35 |
| AAAUAGCAAUAUUACGUGUA | -2.49 ± 0.091 | -1.44 ± 0.09 |
| GGACAGCAAUAUUACGGUUC | -3.64 ± 0.15 | -1.82 ± 0.14 |
| UAACAGCAAUAUUACGCUUG | -0.975 ± 0.06 | -0.577 ± 0.082 |
| UCCUAGCAAUAUUACGCUUG | -3.79 ± 0.21 | -2.46 ± 0.17 |
| UAUUAGCAAUAUUACGCACC | -2.77 ± 0.26 | -0.337 ± 0.2 |
| AUGCAGCAAUAUUACGUAAU | -0.641 ± 0.05 | -0.479 ± 0.066 |
| AAGAAGCAAUAUUACGCACG | -1.26 ± 0.082 | -0.749 ± 0.12 |
| AUCAAGCAAUAUUACGCGAG | -1.3 ± 0.081 | -0.224 ± 0.086 |
| UUAUAGCAAUAUUACGGUUA | -0.941 ± 0.08 | -0.0464 ± 0.084 |
| UCGAAGCAAUAUUACGGCAC | -1.74 ± 0.23 | -1.95 ± 0.32 |
| AAUUAGCAAUAUUACGGCUG | -0.324 ± 0.082 | 0.339 ± 0.12 |
| ACGUAGCAAUAUUACGGGUU | -3.54 ± 0.2 | -2.07 ± 0.21 |
| UUAAAGCAAUAUUACGAAUC | -3.58 ± 0.26 | -1.79 ± 0.16 |
| GUCGAGCAAUAUUACGAAUC | -1.52 ± 0.11 | -0.929 ± 0.15 |
| UUUAAGCAAUAUUACGUAGA | -0.521 ± 0.098 | 0.0733 ± 0.14 |
| GUAGAGCAAUAUUACGGUCC | -1.01 ± 0.17 | -0.565 ± 0.28 |
| AUUGAGCAAUAUUACGUCAA | -3.05 ± 0.26 | -2.6 ± 0.28 |
| AUAAAGCAAUAUUACGGGUG | -1.03 ± 0.082 | -0.259 ± 0.094 |
| UCCUAGCAAUAUUACGAUAA | -3.25 ± 0.29 | -1.56 ± 0.17 |
| UCUUAGCAAUAUUACGGUCG | -0.895 ± 0.16 | -1.37 ± 0.33 |
| GGCCAGCAAUAUUACGGUCA | -0.963 ± 0.1 | -0.389 ± 0.1 |
| AGACAGCAAUAUUACGUGGC | -3.01 ± 0.19 | -2.12 ± 0.22 |

| Sequence | self-splicing fitness (ln) (30 °C) | self-splicing fitness (ln) (37 °C) |
| --- | --- | --- |
| CACAAGCAAUAUUACGGAUG | -2.59 ± 0.095 | -0.904 ± 0.087 |
| GGGGAGCAAUAUUACGCCCA | -1.14 ± 0.19 | -0.0692 ± 0.27 |
| GCAGAGCAAUAUUACGGCCA | – | -2.11 ± 0.29 |
| AAUGAGCAAUAUUACGAAAG | – | -3.18 ± 0.4 |
| GAAAAGCAAUAUUACGGUGC | -2.02 ± 0.12 | -2.05 ± 0.18 |
| AGUGAGCAAUAUUACGAAUG | -3.4 ± 0.36 | -1.58 ± 0.3 |
| CCGCAGCAAUAUUACGUCGG | -3.9 ± 0.21 | -2.28 ± 0.2 |
| AGAGAGCAAUAUUACGUGAU | -3.94 ± 0.18 | -2.1 ± 0.23 |
| GGACAGCAAUAUUACGAGCC | -1.49 ± 0.15 | -2.56 ± 0.25 |
| AAUCAGCAAUAUUACGUGAA | -0.152 ± 0.065 | 0.257 ± 0.094 |
| GUUCAGCAAUAUUACGAGGG | -2.72 ± 0.19 | -0.563 ± 0.16 |
| AAUCAGCAAUAUUACGAACU | -0.125 ± 0.05 | 0.389 ± 0.077 |
| AGAUAGCAAUAUUACGGACA | -0.869 ± 0.15 | -0.224 ± 0.16 |
| ACCUAGCAAUAUUACGAUGA | -1.21 ± 0.091 | -0.609 ± 0.1 |
| GGCUAGCAAUAUUACGAAUG | -2.26 ± 0.14 | -1.01 ± 0.14 |
| CCAGAGCAAUAUUACGGUUC | -4.36 ± 0.21 | -2.38 ± 0.18 |
| UACUAGCAAUAUUACGACGU | -2.22 ± 0.1 | -1.29 ± 0.12 |
| CGUCAGCAAUAUUACGCUAC | -3.74 ± 0.43 | -0.956 ± 0.23 |
| CGUCAGCAAUAUUACGGGCG | -3.15 ± 0.16 | -2.8 ± 0.21 |
| GAUGAGCAAUAUUACGUAGG | -3.76 ± 0.27 | -1.79 ± 0.26 |
| CCCAAGCAAUAUUACGGCAA | -2.32 ± 0.14 | -2.69 ± 0.16 |
| ACAGAGCAAUAUUACGAACC | – | -1.67 ± 0.49 |
| CUAGAGCAAUAUUACGAAUG | 0.298 ± 0.095 | 0.533 ± 0.11 |
| GUGCAGCAAUAUUACGUGGU | -2.55 ± 0.078 | -1.1 ± 0.091 |
| AAGGAGCAAUAUUACGCCUA | -1.21 ± 0.15 | -1.35 ± 0.14 |
| CAAAAGCAAUAUUACGUACG | -0.125 ± 0.061 | 0.143 ± 0.07 |

| Sequence | self-splicing fitness (ln) (30 °C) | self-splicing fitness (ln) (37 °C) |
| --- | --- | --- |
| GUAGAGCAAUAUUACGACAA | 0.152 ± 0.14 | -0.0812 ± 0.17 |
| CUUCAGCAAUAUUACGAGGU | -4.39 ± 0.42 | -2.9 ± 0.27 |
| UUUGAGCAAUAUUACGCAUG | -0.647 ± 0.12 | -0.524 ± 0.19 |
| UACCAGCAAUAUUACGCGCA | 0.0526 ± 0.065 | -0.42 ± 0.08 |
| UACUAGCAAUAUUACGGAUA | -1.72 ± 0.096 | -0.886 ± 0.092 |
| CCCCAGCAAUAUUACGAGUU | -4.17 ± 0.18 | -2.31 ± 0.17 |
| GACAAGCAAUAUUACGCGCG | -0.648 ± 0.091 | -0.467 ± 0.11 |
| UACGAGCAAUAUUACGGUGC | -3.46 ± 0.4 | -2.43 ± 0.48 |
| CACUAGCAAUAUUACGGAUC | -1.79 ± 0.19 | – |
| GUGGAGCAAUAUUACGUCUG | – | -1.75 ± 0.32 |
| CACCAGCAAUAUUACGGAGC | -2.79 ± 0.13 | -1.58 ± 0.13 |
| AACAAGCAAUAUUACGCCGA | -1.45 ± 0.12 | -1.27 ± 0.12 |
| CUACAGCAAUAUUACGCGGC | -2.27 ± 0.15 | -0.807 ± 0.14 |
| AGAGAGCAAUAUUACGAUCG | -1.94 ± 0.11 | -0.822 ± 0.18 |
| UUAAAGCAAUAUUACGCAAC | -3.92 ± 0.25 | -1.75 ± 0.14 |
| UCACAGCAAUAUUACGUGCU | -3.75 ± 0.19 | -2.72 ± 0.15 |
| CUGAAGCAAUAUUACGAUCU | -3.3 ± 0.16 | -3.2 ± 0.28 |
| CUCAAGCAAUAUUACGUUCG | -3.18 ± 0.18 | -3 ± 0.26 |
| UUACAGCAAUAUUACGCUCA | -0.512 ± 0.12 | -0.224 ± 0.13 |
| UUAUAGCAAUAUUACGUUGG | -2.91 ± 0.22 | -1.86 ± 0.21 |
| AAGUAGCAAUAUUACGAUUC | -0.923 ± 0.12 | -0.577 ± 0.15 |
| CGGUAGCAAUAUUACGUUCA | -1.32 ± 0.13 | -0.963 ± 0.15 |
| GCCGAGCAAUAUUACGGUUG | -1.38 ± 0.14 | -0.555 ± 0.19 |
| CUAUAGCAAUAUUACGGUGU | -4.24 ± 0.27 | -1.93 ± 0.22 |
